Assay results reported in paper PMC3892959.

Experiments:
[1] = target: T1, rhVEGF165 (recombinant human vascular endothelial growth factor 165) (human, UniProt P15692-4 27-191); test: fluorescence polarization
[2] = target: T1, rhVEGF165 (recombinant human vascular …); test: affinity capillary electrophoresis

| Binder | Kd [1] [nM] | Kd [2] [nM] |
| --- | --- | --- |
| CGAGGATATCCGATTGTGGGTGACGTATTGGACACCTTCCCG (ssDNA) [C 2] | 162 | 21 |
| TGGCTGTTATTTCTCTCGGCCTCAGATCTTGGGCCCAACA (ssDNA) [C 3] | 164 | 66 |
| GGAAGCCCGCTGTGACATCTGGAGCCGGTTCCCGAGCCA (ssDNA) [C 1] | 101 | 49 |
| ATTCTGGGGAGTGGTACGTAAGCAGTGCCACCACGGTTAT (ssDNA) [R 2] | 88 | 72 |
| CCTTGTCATGATAGCTATGTTTCAGCCAACCATACCCGCT (ssDNA) [R 3] | 46 | 22 |
| GTCTGTACCAATCTAAAAGTGTATATTATATCTACGAGCCT (ssDNA) [R 1] | 100 | 53 |
